Source: patent US20150266977A1 (AbbVie / Abbott, published 2015)
Changes are numbered by the printed parent chain.

What was measured:
[1] = molecular target: T1, recombinant human sclerostin (human, UniProt Q9BQB4 24-213); test: capture ELISA, biotin-sclerostin
T1 construct: biotinylated in the ELISAs; also called hu sclerostin; hu scl
T1 sequence: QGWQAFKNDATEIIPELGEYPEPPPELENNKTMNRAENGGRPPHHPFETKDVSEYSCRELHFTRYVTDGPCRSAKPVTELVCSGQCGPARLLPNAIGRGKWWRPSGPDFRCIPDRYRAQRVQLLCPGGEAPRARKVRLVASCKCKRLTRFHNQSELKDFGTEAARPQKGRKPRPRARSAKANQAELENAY

[2] = molecular target: T1, recombinant human sclerostin; test: direct bind ELISA
[3] = molecular target: T2, recombinant mouse sclerostin (mouse, UniProt Q99P68 24-211); test: SPR
T2 construct: also called ms sclerostin; murine sclerostin
T2 sequence (looked up): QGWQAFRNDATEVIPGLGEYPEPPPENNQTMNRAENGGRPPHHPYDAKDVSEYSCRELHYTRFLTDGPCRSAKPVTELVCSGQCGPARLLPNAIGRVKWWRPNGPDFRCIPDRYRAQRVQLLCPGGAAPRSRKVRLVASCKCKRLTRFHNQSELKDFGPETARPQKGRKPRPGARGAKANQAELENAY

[4] = molecular target: T3, recombinant rat sclerostin (rat, UniProt Q99P67 24-213, limits assumed); test: SPR
T3 sequence (looked up): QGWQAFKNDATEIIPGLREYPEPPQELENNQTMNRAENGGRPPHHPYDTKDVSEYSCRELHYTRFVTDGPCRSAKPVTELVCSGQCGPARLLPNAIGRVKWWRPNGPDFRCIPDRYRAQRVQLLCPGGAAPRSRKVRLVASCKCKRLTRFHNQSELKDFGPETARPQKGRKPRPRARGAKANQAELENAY

[5] = molecular target: T1, recombinant human sclerostin; test: SPR
Experimental: (§1) Approximately 10,000 RU (or 3000 RU when CM3 chip was used) of goat anti-mouse or anti-human IgG (Fcγ) fragment specific polyclonal antibody (Pierce Biotechnology Inc, Rockford, Ill.) diluted in 10 mM sodium acetate (pH 4.5) was directly immobilized across a CM5 (or CM3) research grade biosensor chip using a standard amine coupling kit according to manufacturer's instructions and procedures at 15 μg/ml. Unreacted moieties on the biosensor surface were blocked with ethanolamine. Modified carboxymethyl dextran surface in flowcells 2, 3 and 4 were used as a reaction surface. Modified carboxymethyl dextran in flow cell 1 was used as the reference surface. Biaevaluation T100 software version 2.0.2, GE Healthcare Life Sciences was used to simultaneously fit association and dissociation phases of all injections (using 1:1 fit analysis with local Rmax). Purified antibodies were diluted in running buffer for capture across goat anti-mouse or anti-human IgG specific reaction surfaces. Antibodies to be captured as a ligand (1 μg/ml) were injected over reaction matrices at a flow rate of 10 μl/minute. The association and dissociation rate constants, kon (unit M-1 s-1) and koff (unit s-1) were determined under a continuous flow rate of 50 μl/minute. […] At the end of each cycle the surfaces were regenerated with 10 s injection of 50 mM NaOH or/and by 10 s injection of 10 mM Glycine pH1.5 at a flow rate of 100 μl/min. Instrument appropriate Biaevaluation software, GE Healthcare Life Sciences was used to simultaneously fit association and dissociation constants as well as KD (using 1:1 global fit analysis with local Rₘₐₓ). Binding was recorded as a function of time and kinetic rate constants are calculated. In this assay, on-rates as fast as 10⁷ M⁻¹ s⁻¹ and off-rates as slow as 10⁻⁶ s⁻¹ can be measured.

[6] = molecular target: T4, recombinant cynomolgus monkey sclerostin (cynomolgus monkey); test: SPR
T4 construct: also called cyno sclerostin; Cyno sclerostin
Experimental: as §1

B1: MSL9-8 (antibody, V domains shown)
VH: EVQLVESGGGLVQPGGSLRLSCAASGFRFTDYWMTWVRQAPGKGPEWVANINEDGSKKHYADSVKDRFIISRDNAKKSLSLQMKRMRAEDTAVYYCAADLNPHWLVGWGQGTLVTVSS
VL: QPVLTQPPSVSVAPGKTARITCGGNNIGSRRVHWYQQKPGQAPVLVVYDDNDRPSGIPERFSGSKSGNTATLTISRVEAGDEADYYCQVWHSGRVFGTGTKVTVLG
notes: fully human mAb
EC50 [1]: 12.3 nM

B2: MSK9 (antibody, V domains shown)
VH: B1 VH with V5L, R28T, T30R, D31S, T35S, P45L, N50S, N52K, E53Q
VL: DIVMTQTPLSLPVTPGEPASISCRSSQSLLHSNGYNYLDWYLQKPGQSPQLLIYLGSKRASGVPDRFSGSGSGTDFTLKISRVGAEDVGVYYCMQGLQTPKAFGPGTKVDIKR
notes: fully human mAb
binding result [2]: binds

B3: MSL10-AM3.2 (antibody, V domains shown)
VH: EVQLVESGGGLVQPGRSLRLSCAASGFTFDDYALHWVRQAPGKGLEWVSGIGWDEDMIDYADSVKGRFTISRDNAKNSLYLQMNSLRVEDTALYYCAGNNRGYGGLDVWGQGTTVTVSS
VL: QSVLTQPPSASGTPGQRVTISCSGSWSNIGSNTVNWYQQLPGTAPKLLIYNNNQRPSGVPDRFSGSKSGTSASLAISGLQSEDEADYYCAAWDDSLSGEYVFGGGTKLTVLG
binding result [3]: no binding | binding result [4]: no binding | Kd [5]: 0.9 nM | koff [5]: 0.00025 s⁻¹ | kon [5]: 280000 M⁻¹ s⁻¹ | Kd [6]: 0.36 nM | koff [6]: 0.0001 s⁻¹ | kon [6]: 300000 M⁻¹ s⁻¹

B4: MSK21 (antibody, V domains shown)
VH: EVQLQQSGPGLVKPSQTLSLTCAISGDSVSSNIVAWNWIRQSPSRGLEWLGRTYYTSKWFNQYAMSVKSRITINPDTSKNQVSLKLSSVTAADTAAYYCARVGGTYDFWSGYYRPYYYGMDVWGQGTMVTVSS
VL: DIRLTQSPSSLSASIGDTVTISCRSSQPINTHLNWFRQLPGRAPELLIYGSSSLHTGVPSRFSGSGSGTDFTLTITSLQRGDFLTYYCQQTHRLPITFGQGTRLDIKR
notes: fully human mAb
binding result [2]: binds
